Source: paper PMC4571291

Target: actin (UniProt P68135)
Assay: ITC; Tmod or Lmod construct in the syringe titrated into LatB-actin in the cell (LatB:actin 1.2:1); 20 mM HEPES pH 7.5, 100 mM NaCl, 0.2 mM ATP, 1 mM DTT; temperature and concentrations listed in the figures

Sequence of Tmod1_(ABS1) (P28289 whole entry, the tested form may be a part): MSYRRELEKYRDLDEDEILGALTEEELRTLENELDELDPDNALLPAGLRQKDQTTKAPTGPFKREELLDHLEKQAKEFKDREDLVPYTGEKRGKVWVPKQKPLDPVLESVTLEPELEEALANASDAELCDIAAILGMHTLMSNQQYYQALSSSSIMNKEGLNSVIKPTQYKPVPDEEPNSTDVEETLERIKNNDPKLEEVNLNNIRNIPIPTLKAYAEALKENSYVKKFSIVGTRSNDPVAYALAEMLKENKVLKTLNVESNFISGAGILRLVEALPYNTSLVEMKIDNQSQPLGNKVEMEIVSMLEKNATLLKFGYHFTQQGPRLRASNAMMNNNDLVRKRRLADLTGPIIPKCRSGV

- stoichiometry N: 1
Substance: Tmod1_(ABS1) (from UniProt P28289-1 1-359) (domain or fragment)
